The source of these data is patent US20210063414A1, “METHODS FOR PREVENTING AND/OR TREATING BONE LOSS CONDITIONS BY MODULATING IRISIN” (Dana-Farber Cancer Institute, Inc., priority 2018, published 2021).

Test [1] concerns the target T1, MLO-Y4 cell surface proteins (Mus musculus, UniProt Q08189).
T1 construct: endogenous in cells; host or cells: MLO-Y4
T1 sequence (Q08189 1-693): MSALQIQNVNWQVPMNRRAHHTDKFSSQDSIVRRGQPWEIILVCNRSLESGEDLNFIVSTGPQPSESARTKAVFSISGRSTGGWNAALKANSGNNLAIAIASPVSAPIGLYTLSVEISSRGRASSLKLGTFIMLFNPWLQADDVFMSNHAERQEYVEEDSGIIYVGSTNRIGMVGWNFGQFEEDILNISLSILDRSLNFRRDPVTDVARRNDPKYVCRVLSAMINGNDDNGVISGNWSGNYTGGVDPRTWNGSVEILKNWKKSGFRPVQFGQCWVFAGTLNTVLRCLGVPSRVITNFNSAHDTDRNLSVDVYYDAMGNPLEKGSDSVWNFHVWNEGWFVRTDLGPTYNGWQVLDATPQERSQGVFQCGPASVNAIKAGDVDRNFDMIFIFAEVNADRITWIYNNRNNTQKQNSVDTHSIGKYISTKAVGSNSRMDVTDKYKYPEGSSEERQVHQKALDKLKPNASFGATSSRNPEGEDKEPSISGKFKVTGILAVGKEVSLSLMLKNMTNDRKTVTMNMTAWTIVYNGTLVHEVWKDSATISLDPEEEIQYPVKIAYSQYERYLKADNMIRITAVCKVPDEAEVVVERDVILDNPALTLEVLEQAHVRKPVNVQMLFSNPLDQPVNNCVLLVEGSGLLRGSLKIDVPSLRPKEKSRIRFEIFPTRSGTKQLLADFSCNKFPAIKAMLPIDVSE
The experiment in a line: Crosslinking/co-immunoprecipitation/mass spectrometry (TMT quantitative proteomics) to identify irisin receptors. The class given is binding. The settings on record: co-precipitated protein Tgm3 (TGM3_MOUSE). A digest of the protocol: (§1)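 Mouse MLO-Y4 cells were switched to serum-free FreeStyle medium for 4 h, chilled, then exposed to 10 nM His-tagged irisin (or adipsin as control) for 20 min. Cells were crosslinked with 1.5 mM DTSSP (30 min, ice), and bound proteins were pulled down on Ni-NTA and eluted with 250 mM imidazole. Eluates were separated by SDS-PAGE, trypsin-digested in gel, TMT 6-plex labelled and quantified by MS3-based LC-MS/MS on an Orbitrap Fusion Lumos.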

Test [2] has as its target T2, MLO-Y4 cell surface proteins (Mus musculus, UniProt Q9D051).
T2 construct: endogenous in cells; host or cells: MLO-Y4
T2 sequence (Q9D051 31-359): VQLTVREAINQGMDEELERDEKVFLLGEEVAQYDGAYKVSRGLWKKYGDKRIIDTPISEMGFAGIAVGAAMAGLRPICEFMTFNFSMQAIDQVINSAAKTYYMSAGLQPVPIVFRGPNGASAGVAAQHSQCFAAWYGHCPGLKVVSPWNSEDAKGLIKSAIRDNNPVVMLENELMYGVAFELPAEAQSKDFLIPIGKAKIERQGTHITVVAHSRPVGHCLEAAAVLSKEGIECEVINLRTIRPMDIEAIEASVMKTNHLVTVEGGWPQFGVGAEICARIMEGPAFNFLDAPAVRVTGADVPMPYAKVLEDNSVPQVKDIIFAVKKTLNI
Described as above. The class given is binding. The settings on record: co-precipitated protein Pdhb (ODPB_MOUSE). In outline: as §1

For adipsin, the TMT signal-to-noise ratio in test [1] worked out at 274.388; in test [2] it was 365.712.
